Test system: MS2 coat protein
Assay: apparent KD of MS2 coat protein; designed switch direction (-1 OFF switch, 1 ON switch): 1; higher = weaker reporter binding
Outline: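 Designed RNA switches with common flanks were made on Illumina chips by stalled E. coli RNA polymerase. Titration with SNAP-549-labelled MS2 coat protein doubled from 0.7 or 1.5 nM up to 3 µM. Apparent KD is each design's median over clusters after curve-fitting normalised fluorescence.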

[1] = Eterna round: R95, input ligand: FMN 200 uM
[2] = Eterna round: R95, input ligand: microRNA oligo, concentration not stated
[3] = Eterna round: R95, input ligand: none
[4] = input ligand: microRNA oligo, concentration not stated

Sequence | apparent KD of MS2 coat protein [1] | apparent KD of MS2 coat protein [2] | apparent KD of MS2 coat protein [3] | apparent KD of MS2 coat protein (input ligand: FMN 200 uM) | apparent KD of MS2 coat protein [4] | apparent KD of MS2 coat protein (input ligand: none)
UCCUCAGUUUCACAGGAUAUGCGCUGAGUCACAUGAGGAUCACCCAUGUAGACGGAAAAUGUCGGGCAGAAGGGUGAGGCAUAAA [Diretibe] (puzzle: Same State 2) | 0.0572 µM | 0.117 µM | 4.57 µM | – | – | –
UCGGGCGUACUUGCUGACAUGAGGAUCACCCAUGUAAUUGGGAAGGAUAUGGUUCCGUUUCGGUUCCAGAAGGUCCUGGGUGCU [salish99_SSNG3_r04_312] (Eterna round: R96, puzzle: Same State NG 3) | – | – | – | 0.819 µM | 0.331 µM | 0.443 µM
UCGUUCAUCGUAGGAUAUCUAGGAUAUGAACGAGGAUCACCCGAGCAGCAUCAGCGCAUCAGAGGAGAGAAGGACGAUGAUGCG [pwkr ssNG2 2F5 2FMN.4] (Eterna round: R96, puzzle: Same State NG 2) | – | – | – | 1.08 µM | 0.0372 µM | 0.172 µM
UCGUUCAUCGUAGGAUAUCUAGGAUAUGAACGAGGAUCACCCGAGCAGCAUCAGCGCAUCAGAGGAGAGAAGGACGCUGAUGCG [pwkr ssNG2 2F5 2FMN.20] (Eterna round: R96, puzzle: Same State NG 2) | – | – | – | 0.03 µM | 0.00883 µM | 0.0848 µM
UCUGCAAUUAACGCCUACAUGAGGAUCACCCAUGUAUGUAGGCAGGAUAUCGUUUGCUUUGCAAACGAGAAGGGCUGUAGUAGC [salish99_SSNG3_R04_001] (Eterna round: R96, puzzle: Same State NG 3) | – | – | – | 0.0524 µM | 0.0492 µM | 0.0616 µM
UCUUGGUUUUUGCUCGUUUUUUGUGUUGAACAUGAGGAUCACCCAUGUAUUGUACGAUCCAAUUUGAUAAUGGUCCG [JMF 61] (puzzle: Sensor for hsa-mir-208a) | 0.0442 µM | 0.0344 µM | 0.0487 µM | – | – | –
UCUUGGUUUUUGCUCGUUUUUUGUGUUGAACAUGAGGAUCACCCAUGUAUUGUACGGUCCAAUUUAGUAAUGGUCCG [JMF 26] (puzzle: Sensor for hsa-mir-208a) | 0.0254 µM | 0.0132 µM | 0.0236 µM | – | – | –
UCUUGGUUUUUGCUCGUUUUUUGUGUUGAACAUGAGGAUCACCCAUGUAUUGUACGGUCCAAUUUAGUGGUAAUCCG [JMF 66] (puzzle: Sensor for hsa-mir-208a) | 0.0451 µM | 0.029 µM | 0.0487 µM | – | – | –
UCUUGGUUUUUGCUCGUUUUUUGUGUUGAACAUGAGGAUCACCCAUGUAUUGUACGGUCCAAUUUGAUAAUGGUCCG [JMF 27] (puzzle: Sensor for hsa-mir-208a) | 0.0251 µM | 0.0139 µM | 0.0256 µM | – | – | –
UCUUGGUUUUUGCUCGUUUUUUGUGUUGAACAUGAGGAUCACCCAUGUAUUGUACGGUCCAGUUUGGUAAUGGUCCA [JMF 8] (puzzle: Sensor for hsa-mir-208a) | 0.0312 µM | 0.0205 µM | 0.035 µM | – | – | –
UCUUGGUUUUUGCUCGUUUUUUGUGUUGAACAUGAGGAUCACCCAUGUAUUGUACGGUCCGAUUUGAUGAUGGUCCA [JMF 42] (puzzle: Sensor for hsa-mir-208a) | 0.0314 µM | 0.0222 µM | 0.0351 µM | – | – | –
UGAACCGUCACAGGAUAUCAUGCGAAAAUUGCGUGAGAAGGGUGGAUGUUGUGCUCAAAGUUAUACAUGAGGAUCACCCAUGUU [SameState NG1 #45] (Eterna round: R96, puzzle: Same State NG 1) | – | – | – | 0.133 µM | 0.188 µM | 0.285 µM
UGAAUACAUGAGGAUCACCCAUGUCAACGUAGUCGAGGAUAUGGGCAGCCGUGAGGCGUACCAGAAGGCGAAGAGG [Mat - Same State 1 - Mod of JL - D4] (puzzle: Same State 1) | 0.0404 µM | 0.0888 µM | 0.132 µM | – | – | –
UGAAUAGUGAUAGGAUAUACAUGAGGAAUCCUCGUAGAAGGAUCAUAACAUGAGGAUCACCCAUGUAGCGCUCGAAAGAGCGCA [Mat - Same State NG 1 - JL mod - D55] (Eterna round: R96, puzzle: Same State NG 1) | – | – | – | 0.244 µM | 0.207 µM | 0.0565 µM
UGAAUAGUUACAGGAUAUCAUGCGAAAAUUGCGUGAGAAGGGUGGGUGUUGUGCGCUAAGUGCUACAUGAGGAUCACCCAUGUU [SameState NG1 #37] (Eterna round: R96, puzzle: Same State NG 1) | – | – | – | 0.325 µM | 0.0288 µM | 0.213 µM
UGAAUAGUUACAGGAUAUGAGCCGAAAAUUGGGUCAGAAGGGUGGGUGUUUUGCGCUAUGUGCUACAUGAGGAUCACCCAUGUU [SameState NG1 #34] (Eterna round: R96, puzzle: Same State NG 1) | – | – | – | 0.888 µM | 0.268 µM | 0.338 µM
UGAAUGGUGAUAGGAUAUACAUGAGGAAUCCUCGUAGAAGGAUCACGACAUGAGGAUCACCCAUGUAGCCGUCCGUAGACGGCG [salish99_SSNG1_r04_001] (Eterna round: R96, puzzle: Same State NG 1) | – | – | – | 0.302 µM | 0.0389 µM | 0.238 µM
UGAAUGGUGAUAGGAUAUACAUGAGGAAUCCUCGUAGAAGGAUCAUGACAUGAGGAUCACCCAUGUAGCCGUCCGUAGACGGCA [JL SSNG1 1.22] (Eterna round: R96, puzzle: Same State NG 1) | – | – | – | 0.14 µM | 0.0221 µM | 0.351 µM
UGCCUGAGUCGAGGAUAUUAUGGAUCAAUUAAUACAUGAGGAUCACCCAUGUAAUUAAUUUAACAUGAGAAGGUGACUCAGGCU [SSNG2/10-B3] (Eterna round: R96, puzzle: Same State NG 2) | – | – | – | – | 0.0084 µM | –
UGGAUCUAGGCUUGCCUGGGUCCAUGUUGACAUGAGGAUCACCCAUGUGUAUUCUAUAAGCUUUUUGUUUGUCAACU (puzzle: Sensor for hsa-mir-208a) | 0.0625 µM | 0.0233 µM | 0.13 µM | – | – | –
UGGAUCUAGGCUUGCCUGGGUCCAUGUUGACAUGAGGAUCACCCAUGUGUAUUUUUUAAGCUUUUUGUUUGUCAACA [JL A Humble Attempt mod 6] (puzzle: Sensor for hsa-mir-208a) | 0.0424 µM | 0.0132 µM | 0.0425 µM | – | – | –
UGGAUCUAGGCUUGCCUGGGUCCAUGUUGACAUGAGGAUCACCCAUGUGUAUUUUUUUAGCUUUUUGUUUGUCAACA [JL A Humble Attempt mod 5] (puzzle: Sensor for hsa-mir-208a) | 0.039 µM | 0.0151 µM | 0.0411 µM | – | – | –
UGGAUCUAGGCUUGCCUGGGUCCAUGUUGACAUGAGGAUCACCCAUGUGUAUUUUUUUUGCUUUUUGUUUGUCAACU [JL A Humble Attempt mod 11] (puzzle: Sensor for hsa-mir-208a) | 0.0252 µM | 0.0127 µM | 0.0265 µM | – | – | –
UGGCUCAGACGAGGAUAUAUGUGAUCACAUGAGGAUCACCCAUGUCUCGAGCUUCGGCUCGAGACAUAGAAGGUGUCUGAGCCA [SSNG2/3-C2] (Eterna round: R96, puzzle: Same State NG 2) | – | – | – | 0.0148 µM | 0.0962 µM | 0.0495 µM
UGGCUCAGACGAGGAUAUGAUCAUGGCGCUUCGGCGCAUACAUGAGGAUCACCCAUGUAAAGUGAUCAGAAGGCGUCUGAGCCU [SSNG2/7-A3] (Eterna round: R96, puzzle: Same State NG 2) | – | – | – | 0.0148 µM | 0.0111 µM | 0.015 µM
UGGCUCAGACGAGGAUAUGAUCAUGGCGCUUCGGCGCAUACAUGAGGAUCACCCAUGUAGGGUGAUCAGAAGGCGUCUGAGCCA [SSNG2/8-A2] (Eterna round: R96, puzzle: Same State NG 2) | – | – | – | 0.0558 µM | 0.413 µM | 0.46 µM
UGGCUCAGAGCAGGAUAUACGUGGUCACAUGAGGAUCACCCAUGUCUCGAGCUUCGGCUCGAGGCGUAGAAGGGCUCUGAGCCU [SSNG2/6-B3] (Eterna round: R96, puzzle: Same State NG 2) | – | – | – | 0.118 µM | 0.131 µM | 0.258 µM
